From patent US20080193947A1, “Complementary Peptides For Beta-Amyloid 29-42 Peptide” (priority 2004, published 2008)
Where no end group is shown, it is not given here.

How the values were obtained:
[1] = test system: SH-SY5Y cells; experiment: Cell toxicity assay (MTS) in presence of both the Aβ 1-42 and ApoE 270-287 peptides; format: cell-based, human; conditions: 2 μM ApoE 270-287 + 100 μM Aβ 1-42 (ratio 1/50), 24 h, FIG. 9
[2] = target: T1, Aβ 29-42 (Homo sapiens, UniProt P05067); format: biochemical; conditions: for % of fusion after 15 minutes: 1/1 peptide ratio, room temperature, average of plateau (10-15 minutes) of three experiments, Aβ alone = 100%
[3] = test system: SH-SY5Y cells; experiment: Cell toxicity assay (MTS) of single peptides on human neuroblastoma cell line; format: cell-based; conditions: 24 h, FIG. 7 / FIG. 8
[4] = test system: Aβ 29-42; format: biochemical; conditions: without Aβ 29-42; data not shown
Source text: (§1) In this leakage assay, performed according to the procedure described in Ellens et al. (Ellens, H., Bentz, J., and Szoka, F. C. (1985) Biochemistry 24, 3099-3106), a substance encapsulated in the liposomes is followed by fluorescence measurement. HPTS ([…]) and his quencher DPX (p-xylylenebis[pyridinium]bromide) were both encapsulated in the aqueous phase of the same liposomes. Liposomes were eluted on a Sephadex G75 column to remove the excess of HPTS and DPX.
(§2) Fluorescence was measured at room temperature using excitation and emission wavelengths of 450 nm and 512 nm, respectively. Leakage induced by the Aβ peptide was followed by measuring the dequenching of HPTS released into the medium. The percentage of release induced by the peptide was defined as Ft/Ftot×100, where Ft is the fluorescence signal measured at time t and Ftot is the signal obtained after lysing the vesicles with 0.5% Triton X100.

[5] = target: T1, Aβ 29-42; format: biochemical; set-up: made in house; host or cells: chemical peptide synthesis (no expression host); conditions: for HPTS fluorescence signal when added to Aβ 29-42 (inhibition of membrane destabilization): independently of the mutant/Aβ 29-42 molar ratio, Aβ peptide/lipid molar ratio 0.4, FIGS. 4a and b
Source text: as §1, §2

[6] = target: T2, β-Amyloid peptidic fragment 29-42 (Aβ 29-42) (C-terminal and N-terminal blocked (N-amidated and C-acetylated) (so in the source)); experiment: cell-based or functional assay
[7] = target: T2, β-Amyloid peptidic fragment 29-42 (Aβ …); experiment: cell-based or functional assay; remark: listed apart in the source

Ac-EDMQRQWAGLVEKVQAAV-NH2 [ApoE WT]
cell viability in presence of Aβ 1-42 and the complementary peptide [1]: 80%
% of fusion after 15 minutes [2]: 89%
fluorescence signal (lipid fusion), Aβ 29-42 alone taken as 100% fusion reference ([2]; FIG. 3, added to Aβ 29-42 at molar ratio of 1, Aβ peptide/lipid ratio 0,4 (mol/mol)): about 91%
cell toxicity (viability against increasing peptide concentrations) [3]: induces cell toxicity only at 100 μM

Aβ 1-40: β-Amyloid 1-40 peptide
cell toxicity (viability against increasing peptide concentrations) [3]: does not induce any

EDMQRQLAGVVEKVQAAV (also: N- and C-terminal blocking) [ApoE mutant 11, peptide derived from ApoE WT]
destabilization effects of the peptide alone on the membranes [4]: no destabilization effects on the membranes
HPTS fluorescence signal when added to Aβ 29-42 (inhibition of membrane destabilization) [5]: much weaker

EDMQRQMAGLMEKMQAAV (also: N- and C-terminal blocking) [ApoE mutant 413, peptide derived from ApoE WT]
destabilization effects of the peptide alone on the membranes [4]: no destabilization effects on the membranes
HPTS fluorescence signal when added to Aβ 29-42 (inhibition of membrane destabilization) [5]: much weaker

GAIIGLMVGGVVIA (listed as Homo sapiens) [Aβ 29-42, C-terminal part of the β-Amyloid protein, tilted fusion peptide]
% of fusion after 15 minutes [2]: 100%
% of leakage after 15 minutes ([5]; 1/1 peptide ratio, room temperature, average of plateau (10-15 minutes) of three experiments): 28%

B1: ApoE mutant 413 (peptide)
peptide: Ac-EDMQRQMAGLMEKMQAAV-NH2
% of fusion after 15 minutes (R18 lipid fusion of SUV induced by Aβ 29-42, 1/1 peptide ratio) [6]: 21%
% of leakage after 15 minutes (HPTS/DPX liposome leakage induced by Aβ 29-42, 1/1 peptide ratio) [6]: 4%
R18 fluorescence signal of lipid fusion against Aβ 29-42 alone as 100% (FIG. 3, molar ratio of 1) [7]: 25%

B2: wild type Apolipoprotein E3 peptide 270-287 (ApoE WT) (peptide)
peptide: EDMQRQWAGLVEKVQAAV
modifications: not fully specified (N-terminus, C-terminus)
% of fusion after 15 minutes (R18 lipid fusion of SUV induced by Aβ 29-42, 1/1 peptide ratio) [6]: 89%
R18 fluorescence signal of lipid fusion against Aβ 29-42 alone as 100% (FIG. 3, molar ratio of 1) [7]: ~91%

B3: ApoE mutant 11 (peptide)
peptide: Ac-EDMQRQLAGVVEKVQAAV-NH2
% of fusion after 15 minutes (R18 lipid fusion of SUV induced by Aβ 29-42, 1/1 peptide ratio) [6]: 17%
% of leakage after 15 minutes (HPTS/DPX liposome leakage induced by Aβ 29-42, 1/1 peptide ratio) [6]: 0%
R18 fluorescence signal of lipid fusion against Aβ 29-42 alone as 100% (FIG. 3, molar ratio of 1) [7]: 23%
